Experimental data: the Immune Epitope Database (IEDB)
pKd: −log10 of the molar value. Each block holds one sequence with its values, some of them ahead of it.

Key:
HLA-A*01:01 = test: IEDB peptide-MHC binding, purified MHC/direct/fluorescence; filed as Kd, often an IC50 or EC50 that approximates it; ≥ and ≤ were set here for values at or beyond the usual limits of such assays
HLA-A*02:01 [1] = test: as above
HLA-A*03:01 = test: as above
HLA-A*24:03 = test: as above
HLA-A*26:01 [2] = test: as above
HLA-A*30:01 = test: as above
HLA-A*69:01 [3] = test: as above
HLA-B*07:02 = test: as above
HLA-B*08:01 = test: as above
HLA-B*15:01 = test: as above
HLA-B*27:05 = test: as above
HLA-B*40:01 = test: as above
HLA-B*58:01 = test: as above
HLA-A*02:01 [4] = test: IEDB peptide-MHC binding, purified MHC/competitive/fluorescence; filed as Kd, often an IC50 or EC50 that approximates it; ≥ and ≤ were set here for values at or beyond the usual limits of such assays
HLA-A*02:03 = test: as above
HLA-A*02:06 = test: as above
HLA-A*02:11 = test: as above
HLA-A*02:12 = test: as above
HLA-A*02:19 = test: as above
HLA-A*69:01 [5] = test: as above
HLA-A*11:01 = test: IEDB peptide-MHC binding, purified MHC/direct/fluorescence; filed as Kd, often an IC50 or EC50 that approximates it; ≥ and ≤ were set here for values at or beyond the usual limits of such assays
HLA-A*31:01 = test: as above
HLA-A*68:02 [6] = test: as above; conditions: source organism: Escherichia coli O157:H7
HLA-B*15:17 = test: as above; conditions: source organism: Escherichia coli O157:H7
HLA-B*18:01 [7] = test: as above; conditions: source organism: Escherichia coli O157:H7
HLA-B*46:01 [8] = test: as above; conditions: source organism: Escherichia coli O157:H7
HLA-B*48:01 = test: as above; conditions: source organism: Escherichia coli O157:H7
HLA-B*57:01 = test: as above; conditions: source organism: Escherichia coli O157:H7
HLA-A*02:16 = test: IEDB peptide-MHC binding, purified MHC/competitive/fluorescence; filed as Kd, often an IC50 or EC50 that approximates it; ≥ and ≤ were set here for values at or beyond the usual limits of such assays; conditions: source organism: Vibrio cholerae O395
HLA-A*26:01 [9] = test: as above; conditions: source organism: Vibrio cholerae O395
HLA-A*29:02 = test: as above; conditions: source organism: Vibrio cholerae O395
HLA-A*68:02 [10] = test: as above; conditions: source organism: Vibrio cholerae O395
HLA-B*18:01 [11] = test: as above; conditions: source organism: Vibrio cholerae O395
HLA-B*39:01 = test: as above; conditions: source organism: Vibrio cholerae O395
HLA-B*46:01 [12] = test: as above; conditions: source organism: Vibrio cholerae O395
HLA-B*44:02 = test: IEDB peptide-MHC binding, purified MHC/direct/fluorescence; filed as Kd, often an IC50 or EC50 that approximates it; ≥ and ≤ were set here for values at or beyond the usual limits of such assays; conditions: source organism: Rickettsia prowazekii
[13] = source organism: Escherichia coli 536
[14] = source organism: Escherichia coli O6
[15] = source organism: Human immunodeficiency virus 1
[16] = source organism: Escherichia coli O157:H7
[17] = source organism: Pasteurella multocida
[18] = source organism: Vibrio vulnificus YJ016
[19] = source organism: Vibrio vulnificus
[20] = source organism: Vibrio cholerae O395
[21] = source organism: Yersinia pestis Nepal516
[22] = source organism: Rickettsia prowazekii

- pKd (HLA-A*01:01; [13]): ≤ 4.70
- pKd (HLA-A*02:01 [1]; [13]): ≤ 4.70
- pKd (HLA-A*03:01; [13]): ≤ 4.70
- pKd (HLA-A*24:03; [14]): 8.60
- pKd (HLA-A*26:01 [2]; [13]): ≤ 4.70
- pKd (HLA-A*30:01; [14]): 5.38
- pKd (HLA-A*69:01 [3]; [13]): ≤ 4.70
- pKd (HLA-B*07:02; [13]): ≤ 4.70
- pKd (HLA-B*08:01; [13]): ≤ 4.70
- pKd (HLA-B*15:01; [13]): ≤ 4.70
- pKd (HLA-B*27:05; [13]): ≤ 4.70
- pKd (HLA-B*40:01; [13]): ≤ 4.70
- pKd (HLA-B*58:01; [14]): 5.04
Sequence: RYICPVQQI

Sequence: NLGQHIYET
- pKd (HLA-A*02:01 [4]; [15]): 5.05
- pKd (HLA-A*02:03; [15]): 6.94
- pKd (HLA-A*02:06; [15]): 6.96
- pKd (HLA-A*02:11; [15]): 7.47
- pKd (HLA-A*02:12; [15]): 6.49
- pKd (HLA-A*02:19; [15]): 6.84
- pKd (HLA-A*69:01 [5]; [15]): ≤ 4.70

Sequence: RGRGVAIHR
- pKd (HLA-A*01:01; [16]): ≤ 4.70
- pKd (HLA-A*02:01 [1]; [16]): ≤ 4.70
- pKd (HLA-A*03:01; [16]): 6.31
- pKd (HLA-A*11:01; [16]): ≤ 4.70
- pKd (HLA-A*31:01; [16]): 8.18
- pKd (HLA-A*68:02 [6]): ≤ 4.70
- pKd (HLA-B*07:02; [16]): ≤ 4.70
- pKd (HLA-B*15:01; [16]): ≤ 4.70
- pKd (HLA-B*15:17): ≤ 4.70
- pKd (HLA-B*18:01 [7]): ≤ 4.70
- pKd (HLA-B*27:05; [16]): ≤ 4.70
- pKd (HLA-B*40:01; [16]): ≤ 4.70
- pKd (HLA-B*46:01 [8]): ≤ 4.70
- pKd (HLA-B*48:01): ≤ 4.70
- pKd (HLA-B*57:01): ≤ 4.70
- pKd (HLA-B*58:01; [16]): ≤ 4.70
- pKd (HLA-A*02:06; source organism: Shigella dysenteriae 1012): 6.24

- pKd (HLA-A*01:01; [17]): ≤ 4.70
- pKd (HLA-A*02:01 [1]; [17]): ≤ 4.70
- pKd (HLA-A*03:01; [17]): ≤ 4.70
- pKd (HLA-A*11:01; [17]): ≤ 4.70
- pKd (HLA-A*24:03; [17]): ≤ 4.70
- pKd (HLA-A*26:01 [2]; [17]): ≤ 4.70
- pKd (HLA-A*30:01; [17]): 4.80
- pKd (HLA-A*31:01; [17]): ≤ 4.70
- pKd (HLA-A*69:01 [3]; [17]): ≤ 4.70
- pKd (HLA-B*08:01; [17]): 6.79
- pKd (HLA-B*15:01; [17]): ≤ 4.70
- pKd (HLA-B*27:05; [17]): ≤ 4.70
- pKd (HLA-B*40:01; [17]): ≤ 4.70
- pKd (HLA-B*58:01; [17]): ≤ 4.70
Sequence: NNKSRLVAF

Sequence: DAYGFHNYK
- pKd (HLA-A*01:01; [18]): ≤ 4.70
- pKd (HLA-A*02:01 [1]; [18]): ≤ 4.70
- pKd (HLA-A*03:01; [19]): 6.67
- pKd (HLA-A*11:01; [19]): 6.89
- pKd (HLA-A*24:03; [18]): ≤ 4.70
- pKd (HLA-A*26:01 [2]; [18]): ≤ 4.70
- pKd (HLA-A*30:01; [19]): 5.96
- pKd (HLA-A*69:01 [3]; [18]): ≤ 4.70
- pKd (HLA-B*07:02; [18]): ≤ 4.70
- pKd (HLA-B*08:01; [18]): ≤ 4.70
- pKd (HLA-B*15:01; [18]): ≤ 4.70
- pKd (HLA-B*40:01; [18]): ≤ 4.70
- pKd (HLA-B*58:01; [18]): ≤ 4.70

Sequence: RVHFHRFMY
- pKd (HLA-A*02:01 [4]; [20]): ≤ 4.70
- pKd (HLA-A*02:03; [20]): ≤ 4.70
- pKd (HLA-A*02:11; [20]): ≤ 4.70
- pKd (HLA-A*02:12; [20]): ≤ 4.70
- pKd (HLA-A*02:16): ≤ 4.70
- pKd (HLA-A*02:19; [20]): ≤ 4.70
- pKd (HLA-A*26:01 [9]): ≤ 4.70
- pKd (HLA-A*29:02): 8.38
- pKd (HLA-A*68:02 [10]): ≤ 4.70
- pKd (HLA-A*69:01 [5]; [20]): ≤ 4.70
- pKd (HLA-B*18:01 [11]): ≤ 4.70
- pKd (HLA-B*39:01): ≤ 4.70
- pKd (HLA-B*46:01 [12]): ≤ 4.70

Sequence: SLTPSPLDL
- pKd (HLA-A*02:01 [4]; [21]): 6.68
- pKd (HLA-A*02:06; [21]): 5.86

Sequence: VVNYDNSTK
- pKd (HLA-A*01:01; [22]): ≤ 4.70
- pKd (HLA-A*02:01 [1]; [22]): ≤ 4.70
- pKd (HLA-A*03:01; [22]): 6.35
- pKd (HLA-A*11:01; [22]): 7.35
- pKd (HLA-A*24:03; [22]): ≤ 4.70
- pKd (HLA-A*26:01 [2]; [22]): ≤ 4.70
- pKd (HLA-A*30:01; [22]): 5.76
- pKd (HLA-A*31:01; [22]): 5.26
- pKd (HLA-A*69:01 [3]; [22]): ≤ 4.70
- pKd (HLA-B*07:02; [22]): ≤ 4.70
- pKd (HLA-B*08:01; [22]): ≤ 4.70
- pKd (HLA-B*15:01; [22]): ≤ 4.70
- pKd (HLA-B*27:05; [22]): ≤ 4.70
- pKd (HLA-B*40:01; [22]): ≤ 4.70
- pKd (HLA-B*44:02): ≤ 4.70
- pKd (HLA-B*58:01; [22]): ≤ 4.70
